Earlier results, collected in article PMC12525431, “Hsp70 Peptides Induce TREM-1-Dependent and TREM-1-Independent Activation of Cytotoxic Lymphocytes” (International Journal of Molecular Sciences, 2025).

Target: T1, TREM-1 (Homo sapiens, UniProt Q9NP99)
T1 construct: causes dissociation of the TREM-1 exocellular domain; made in house
Conditions: ref [30],[31],[32],[33]

T1 sequence (Q9NP99 21-205 limits assumed): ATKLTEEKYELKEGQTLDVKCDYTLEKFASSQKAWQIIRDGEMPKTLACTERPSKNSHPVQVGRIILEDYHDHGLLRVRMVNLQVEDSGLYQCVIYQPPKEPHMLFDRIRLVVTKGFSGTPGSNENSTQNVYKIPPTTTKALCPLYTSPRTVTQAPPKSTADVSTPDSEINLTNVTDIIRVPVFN

- TREM-1 ligand: TREM-1 ligands
B1: eCIRP: RNA-binding protein (eCIRP), TREM-1 ligand (protein, UniProt Q14011 1-172, looked up)
Cold-inducible RNA-binding …: MASDEGKLFVGGLSFDTNEQSLEQVFSKYGQISEVVVVKDRETQRSRGFGFVTFENIDDAKDAMMAMNGKSVDGRQIRVDQAGKSSDNRSRGYRGGSAGGRGFFRGGRGRGRGFSRGGGDRGYGGNRFESRSGGYGGSRDYYSSRSQSGGYSDRSSGGSYRDSYDSYATHNE
